One molecule from paper PMC13233068, “HSD17B7 is required for the function of sensory hair cells by regulating cholesterol synthesis” (eLife, 2026) can be followed below.

The experiment addresses T1, GST-HSD17B7 fusion protein (human, UniProt P56937-1 1-341).
T1 construct: HSD17B7 (17β-hydroxysteroid dehydrogenase type 7), human, full-length cDNA amplified from HEK293T cDNA; 341 aa by the domain limits printed (1-229, 230-250, 251-341); also called 17β-Hydroxysteroid dehydrogenase type 7
T1 sequence (looked up): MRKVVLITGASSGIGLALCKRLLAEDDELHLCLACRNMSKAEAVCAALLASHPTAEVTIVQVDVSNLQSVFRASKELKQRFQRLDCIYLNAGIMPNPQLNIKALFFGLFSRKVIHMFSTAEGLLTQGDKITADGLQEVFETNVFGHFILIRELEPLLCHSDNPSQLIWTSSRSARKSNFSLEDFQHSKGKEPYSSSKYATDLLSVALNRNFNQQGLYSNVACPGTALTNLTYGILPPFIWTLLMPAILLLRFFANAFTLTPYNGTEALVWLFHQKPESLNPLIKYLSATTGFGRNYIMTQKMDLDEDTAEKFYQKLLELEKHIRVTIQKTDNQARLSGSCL
Description: pull-down; GST and GST-HSD17B7 immobilised on GSH resin, incubated with purified His-RER1 overnight at 4°C, washed with 0.3% PBST; Coomassie staining and western blot. To be noted: both partners purified. On the technique in general: In western blotting, separated proteins are transferred to a membrane and probed.

B1: RER1-His (natural protein, human (cDNA from HEK293T), UniProt O15258 1-196, looked up)
chain: MSEGDSVGESVHGKPSVVYRFFTRLGQIYQSWLDKSTPYTAVRWVVTLGLSFVYMIRVYLLQGWYIVTYALGIYHLNLFIAFLSPKVDPSLMEDSDDGPSLPTKQNEEFRPFIRRLPEFKFWHAATKGILVAMVCTFFDAFNVPVFWPILVMYFIMLFCITMKRQIKHMIKYRYIPFTHGKRRYRGKEDAGKAFAS
notes: RER1, full-length cDNA amplified from HEK293T cDNA; The legend prints RER1-His, the methods His-RER1; the pET-23b vector would add a C-terminal His tag (surmised); Detected by immunoblot of the His tag; also called His-RER1; ER retention receptor RER1
In the case of B1, the binding result is given as “binds”.
